The target in assay [1] is T1, recombinant human TGFβ2 (human, UniProt P61812 303-414).
T1 sequence (looked up): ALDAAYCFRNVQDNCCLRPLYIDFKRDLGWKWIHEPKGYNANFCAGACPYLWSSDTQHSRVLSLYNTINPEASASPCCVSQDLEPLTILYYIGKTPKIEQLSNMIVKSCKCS
Kind of assay: cell-based or functional assay.

Assay [2] addresses T2, recombinant human TGFβ1 (human, UniProt P01137 279-390). Nature of the assay: cell-based or functional assay.
For assay [3], the target named is T3, TGFβ3 (UniProt P10600 301-412).
T3 sequence (looked up): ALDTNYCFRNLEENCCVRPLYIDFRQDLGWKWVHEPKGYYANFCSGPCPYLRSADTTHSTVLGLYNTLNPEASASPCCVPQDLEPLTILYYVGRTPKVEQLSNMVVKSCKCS
Nature of the assay: cell-based or functional assay.

The target in assay [4] is T3, TGFβ3. Kind of assay: A549 cell radioreceptor assay (nM IgG).
In assay [5] the target is T2, recombinant human TGFβ1. Nature of the assay: A549 cell radioreceptor assay (nM IgG).
Assay [6] deals with T1, recombinant human TGFβ2. Kind of assay: A549 cell radioreceptor assay (nM IgG). As to the method:
Aliqouts of ¹²⁵I-TGFβ1 or TGFβ2 (70-90 TBq/mmol; Amersham International) at 20 pM are preincubated with antibody in binding medium at room temperature for 1 h. Duplicate samples of 0.5 ml of TGFβ/antibody mixtures are then added to the cell monlayers and are incubated at 37° C. for 1-2 h. Control wells contain TGFβ only. Unbound TGFβ is removed by washing 4 times with Hank's balanced salt solution containing 0.1% BSA. Cells are solubilised in 0.8 ml 25 mM Tris HCl pH 7.5, 10% glycerol, 1% Triton X-100 at room temperature for 20 min. The contents of each well are removed and ¹²⁵I measured in a gamma counter.
The ability of 6B1 IgG4 to inhibit binding of TGFβ isoforms to receptors was measured in a radioreceptor assay as described in example 4.

This note sets out measurements from US20050049403A1 (CAMBRIDGE ANTIBODY TECHNOLOGY, published 2005).

T2 sequence (P01137 279-390 limits assumed): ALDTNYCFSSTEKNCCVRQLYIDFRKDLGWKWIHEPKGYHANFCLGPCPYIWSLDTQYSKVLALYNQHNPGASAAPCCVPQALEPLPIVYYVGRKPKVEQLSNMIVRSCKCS

The IC50 is the concentration needed to halve the response being measured. Turning to “Mouse anti-TGFβ1,2,3 monoclonal antibody from Genzyme”, the TF1 cell proliferation assay IC50 (nM IgG) in assay [1] came out at 10 nM; in assay [2], 1.5 nM; in assay [3] it was 0.1 nM. In addition, the IC50 in assay [4] was 0.03 nM; in assay [5] it was 0.55 nM; in assay [6], 0.5 nM.
